From paper PMC12578638
pKd: −log10 of the molar value.

Experiments:
[1] = biological target: hDPEP1-Avi (human DPEP1 residues 17-385) (human) (UniProt P16444); assay: BLI
[2] = biological target: biotinylated pDPEP1-Avi (pig DPEP1 residues 17-385) (pig (Sus scrofa)) (UniProt P22412); assay: BLI
Sequence of UniProt P22412 (P22412 17-385): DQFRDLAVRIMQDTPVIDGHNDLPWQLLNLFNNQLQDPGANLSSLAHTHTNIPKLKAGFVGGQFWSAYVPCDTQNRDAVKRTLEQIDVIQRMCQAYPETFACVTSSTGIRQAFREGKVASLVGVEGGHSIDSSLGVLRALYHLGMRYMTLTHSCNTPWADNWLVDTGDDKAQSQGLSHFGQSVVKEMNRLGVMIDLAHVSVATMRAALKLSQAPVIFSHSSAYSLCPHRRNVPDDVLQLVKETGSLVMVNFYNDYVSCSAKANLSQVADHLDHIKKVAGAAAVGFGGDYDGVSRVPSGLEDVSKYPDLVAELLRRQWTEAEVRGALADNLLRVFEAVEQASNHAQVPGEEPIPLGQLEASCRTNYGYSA

Sequence of UniProt P16444 (P16444 17-385): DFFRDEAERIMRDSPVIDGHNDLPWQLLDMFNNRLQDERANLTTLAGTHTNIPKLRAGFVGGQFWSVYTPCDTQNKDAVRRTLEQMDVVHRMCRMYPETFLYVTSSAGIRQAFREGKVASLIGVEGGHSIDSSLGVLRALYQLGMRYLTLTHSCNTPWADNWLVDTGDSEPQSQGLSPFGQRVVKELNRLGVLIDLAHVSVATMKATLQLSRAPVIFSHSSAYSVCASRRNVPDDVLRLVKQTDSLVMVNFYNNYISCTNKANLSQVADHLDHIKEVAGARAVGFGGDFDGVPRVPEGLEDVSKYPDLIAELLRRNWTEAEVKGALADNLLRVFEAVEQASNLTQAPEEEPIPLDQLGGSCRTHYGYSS

In the case of “PHEV spike RBD (residues 327-605), from Expi293F cells (domain or fragment)”, the pKd [1] was 5.52 and the pKd [2] was 5.82.
